Measurements published in paper PMC12376085.

Target: HLA-A2/β2M complex on T2 cells (no pulsed peptide) (human (endogenous in T2) | human)
Assay: flow cytometry on cells

MFI of surface HLA-A2 on peptide-pulsed T2 cells	Binder
74200	RMFPNAPYL [… peptide (WT1 126–134)]
53900	ILSLELMKL [… peptide]
